In PMC2173853 (The Journal of Cell Biology, 2002):
Read-outs that look alike come from different tables or passages of the source.

T1: Sly1p cleaved from purified GST–Sly1p (untagged soluble Sly1p) (S. cerevisiae, UniProt P22213 1-666)
T1 sequence: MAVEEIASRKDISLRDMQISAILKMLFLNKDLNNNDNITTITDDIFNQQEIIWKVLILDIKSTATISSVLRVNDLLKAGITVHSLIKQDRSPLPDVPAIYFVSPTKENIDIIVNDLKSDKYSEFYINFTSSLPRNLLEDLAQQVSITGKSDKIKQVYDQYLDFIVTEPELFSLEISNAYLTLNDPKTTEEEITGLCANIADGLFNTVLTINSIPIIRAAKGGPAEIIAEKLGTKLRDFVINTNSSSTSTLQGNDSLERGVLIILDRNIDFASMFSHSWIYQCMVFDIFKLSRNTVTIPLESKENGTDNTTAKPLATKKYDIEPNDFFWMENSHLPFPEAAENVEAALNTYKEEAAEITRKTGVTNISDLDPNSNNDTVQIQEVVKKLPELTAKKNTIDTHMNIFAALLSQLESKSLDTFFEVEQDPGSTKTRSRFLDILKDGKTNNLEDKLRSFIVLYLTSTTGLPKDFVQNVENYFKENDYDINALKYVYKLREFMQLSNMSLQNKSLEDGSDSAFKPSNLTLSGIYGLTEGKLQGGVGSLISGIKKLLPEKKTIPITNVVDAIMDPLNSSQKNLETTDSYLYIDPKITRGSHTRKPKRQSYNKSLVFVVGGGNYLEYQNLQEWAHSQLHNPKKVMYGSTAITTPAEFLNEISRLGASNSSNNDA

T2: GST–Sec22p (yeast, UniProt P22214)
T2 sequence: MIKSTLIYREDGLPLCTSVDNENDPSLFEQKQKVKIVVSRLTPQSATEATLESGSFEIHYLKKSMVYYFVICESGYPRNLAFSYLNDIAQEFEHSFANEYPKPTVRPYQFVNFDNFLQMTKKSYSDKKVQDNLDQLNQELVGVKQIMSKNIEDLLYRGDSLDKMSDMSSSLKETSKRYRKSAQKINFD

T3: heterodimeric GST–Sed5p–His10-Sly1p complex bound to beads (S. cerevisiae, UniProt Q01590;P22213)
T3 sequence 1: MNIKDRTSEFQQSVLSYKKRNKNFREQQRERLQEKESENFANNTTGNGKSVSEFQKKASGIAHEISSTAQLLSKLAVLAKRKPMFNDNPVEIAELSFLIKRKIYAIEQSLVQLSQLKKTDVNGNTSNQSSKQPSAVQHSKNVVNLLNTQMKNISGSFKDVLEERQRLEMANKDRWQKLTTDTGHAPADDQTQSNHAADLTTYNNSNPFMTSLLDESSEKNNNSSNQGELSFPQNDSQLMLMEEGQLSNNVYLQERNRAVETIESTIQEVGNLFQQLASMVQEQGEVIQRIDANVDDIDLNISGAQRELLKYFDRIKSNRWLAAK
T3 sequence 2: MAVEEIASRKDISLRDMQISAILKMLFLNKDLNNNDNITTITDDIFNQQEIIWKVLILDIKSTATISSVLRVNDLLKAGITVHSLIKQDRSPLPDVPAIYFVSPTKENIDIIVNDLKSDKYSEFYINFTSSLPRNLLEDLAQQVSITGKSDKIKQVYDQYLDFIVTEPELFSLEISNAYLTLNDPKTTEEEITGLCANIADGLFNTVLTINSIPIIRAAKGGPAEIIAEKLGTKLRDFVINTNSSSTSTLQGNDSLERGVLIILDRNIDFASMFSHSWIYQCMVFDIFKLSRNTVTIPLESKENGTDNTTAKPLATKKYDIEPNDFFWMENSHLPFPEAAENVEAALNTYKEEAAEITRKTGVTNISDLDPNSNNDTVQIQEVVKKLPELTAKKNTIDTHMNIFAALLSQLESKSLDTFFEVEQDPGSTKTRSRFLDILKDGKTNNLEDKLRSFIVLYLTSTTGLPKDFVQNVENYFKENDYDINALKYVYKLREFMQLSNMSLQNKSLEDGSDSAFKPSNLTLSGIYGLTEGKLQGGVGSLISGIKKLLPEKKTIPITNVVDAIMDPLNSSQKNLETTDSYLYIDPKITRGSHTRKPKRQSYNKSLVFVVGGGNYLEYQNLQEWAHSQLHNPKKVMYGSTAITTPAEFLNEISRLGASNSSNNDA

T4: GST–Sed5p (entire cytosolic region) (S. cerevisiae, UniProt Q01590 1-324)
T4 sequence: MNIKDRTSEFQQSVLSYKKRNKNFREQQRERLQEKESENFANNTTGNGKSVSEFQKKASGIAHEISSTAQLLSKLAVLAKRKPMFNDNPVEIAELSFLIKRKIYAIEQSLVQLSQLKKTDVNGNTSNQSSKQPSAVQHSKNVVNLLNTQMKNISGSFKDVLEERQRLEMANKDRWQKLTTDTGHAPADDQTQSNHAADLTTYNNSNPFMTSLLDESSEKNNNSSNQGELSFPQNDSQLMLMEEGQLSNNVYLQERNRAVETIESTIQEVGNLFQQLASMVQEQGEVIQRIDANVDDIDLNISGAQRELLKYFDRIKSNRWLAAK


How the values were obtained:
Assay in all cases: pull-down
[1] = molecular target: T1, Sly1p cleaved from purified GST–Sly1p …
[2] = molecular target: T2, GST–Sec22p
[3] = molecular target: T3, heterodimeric GST–Sed5p–His10-Sly1p …
[4] = molecular target: T4, GST–Sed5p (entire cytosolic region)
[5] = molecular target: T2, GST–Sec22p; remark: listed apart in the source
[6] = molecular target: T2, GST–Sec22p; remark: listed apart in the source
[7] = molecular target: T2, GST–Sec22p; remark: listed apart in the source

| Binder | binding result [1] | stoichiometry of Sly1p–Sed5p–Bos1p–Sec22p–Bet1p in the isolated complex [2] | stoichiometry N [3] | stoichiometry N [4] | stoichiometry N [5] | stoichiometry N [6] | stoichiometry N [7] |
| --- | --- | --- | --- | --- | --- | --- | --- |
| GST–Sed5N (NH2-terminal domain) (domain or fragment) MNIKDRTSEFQQSVLSYKKRNKNFREQQRERLQEKESENFANNTTGNGKSVSEFQKKASGIAHEISSTAQLLSKLAVLAKRKPMFNDNPVEIAELSFLIKRKIYAIEQSLVQLSQLKKTDVNGNTSNQSSKQPSAVQHSKNVVNLLNTQMKNISGSFKDVLEERQRLEMANKDRWQKLTTDTGHAPADDQTQSNHAADLTTYNNSNPFMTSLLDESSEKNNNSSNQGELSFPQNDSQLMLMEEGQLSNNV | binds |  |  |  |  |  |  |
| His6-Bos1p lacking the transmembrane (TM) (domain or fragment) MNALYNHAVKQKNQLQQELARFEKNSVTAPISLQGSISATLVSLEKTVKQYAEHLNRYKEDTNAEEIDPKFANRLATLTQDLHDFTAKFKDLKQSYNENNSRTQLFGSGASHVMDSDNPFSTSETIMNKRNVGGASANGKEGSSNGGGLPLYQGLQKEQSVFERGNAQLDYILEMGQQSFENIVEQNKILSKVQDRMSNGLRTLGVSEQTITSINKRVFKDK |  | 0.8 molar ratio (GST–Sec22p = 1.4) | 1.4 per Sed5p | 1.3 per Sed5p |  |  |  |
| His6-Sed5p (NH2-terminally His6-tagged Sed5p lacking the COOH-terminal membrane anchor) (domain or fragment) MNIKDRTSEFQQSVLSYKKRNKNFREQQRERLQEKESENFANNTTGNGKSVSEFQKKASGIAHEISSTAQLLSKLAVLAKRKPMFNDNPVEIAELSFLIKRKIYAIEQSLVQLSQLKKTDVNGNTSNQSSKQPSAVQHSKNVVNLLNTQMKNISGSFKDVLEERQRLEMANKDRWQKLTTDTGHAPADDQTQSNHAADLTTYNNSNPFMTSLLDESSEKNNNSSNQGELSFPQNDSQLMLMEEGQLSNNVYLQERNRAVETIESTIQEVGNLFQQLASMVQEQGEVIQRIDANVDDIDLNISGAQRELLKYFDRIKSNRWLAAK |  | 1.2 molar ratio (GST–Sec22p = 1.4) |  |  | 0.5 Sed5p per Sec22p | 0.3 Sed5p per Sec22p | 1.1 Sed5p per Sec22p |
| His6-Bet1p lacking the COOH-terminal membrane anchor (domain or fragment) MSSRFAGGNAYQRDTGRTQLFGPADGSNSLDDNVSSALGSTDKLDYSQSTLASLESQSEEQMGAMGQRIKALKSLSLKMGDEIRGSNQTIDQLGDTFHNTSVKLKRTFGNMMEMARR |  | 1.3 molar ratio (GST–Sec22p = 1.4) | 1.3 per Sed5p | 1.5 per Sed5p |  |  |  |
